Target: T1, His-DAPK1 (848–1288 aa) (UniProt P53355 848-1288)
T1 construct: source: purified recombinant protein
T1 sequence (looked up): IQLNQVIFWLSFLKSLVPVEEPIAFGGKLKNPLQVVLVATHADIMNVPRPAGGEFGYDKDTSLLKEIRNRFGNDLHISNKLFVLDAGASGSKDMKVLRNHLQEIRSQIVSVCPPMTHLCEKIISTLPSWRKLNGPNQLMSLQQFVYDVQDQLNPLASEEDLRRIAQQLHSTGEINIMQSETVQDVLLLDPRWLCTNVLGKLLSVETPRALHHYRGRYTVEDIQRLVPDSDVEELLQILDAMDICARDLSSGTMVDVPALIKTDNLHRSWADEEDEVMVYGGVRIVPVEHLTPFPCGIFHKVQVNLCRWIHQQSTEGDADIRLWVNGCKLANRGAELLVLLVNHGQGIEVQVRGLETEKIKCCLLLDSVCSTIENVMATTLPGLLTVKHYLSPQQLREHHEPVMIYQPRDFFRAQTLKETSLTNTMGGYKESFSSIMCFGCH
Experiment: pull-down; purified His-DAPK1 (848–1288 aa) incubated with GST or GST-SENP1 proteins; immunoblot with an anti-His antibody
Details: both partners purified

B1: GST-SENP1 (1-200 aa) (domain or fragment, UniProt Q9P0U3 1-200, looked up)
chain: MDDIADRMRMDAGEVTLVNHNSVFKTHLLPQTGFPEDQLSLSDQQILSSRQGHLDRSFTCSTRSAAYNPSYYSDNPSSDSFLGSGDLRTFGQSANGQWRNSTPSSSSSLQKSRNSRSLYLETRKTSSGLSNSFAGKSNHHCHVSAYEKSFPIKPVPSPSWSGSCRRSLLSPKKTQRRHVSTAEETVQEEEREIYRQLLQM
notes: Sentrin-specific protease 1 (SENP1), N-terminal region, residues 1-200; also called N-terminal region (1-200 aa) of SENP1; source: E. coli, purified GST fusion protein
binding result: binds
